The values below come from a protein production outcome set (Wang et al. 2014).
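Also: failed if final PepcDB status was selected cloned or expressed and not failed if soluble or beyond.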

The nature of this series: label from the status in PepcDB records.
As to “MTDVRHCPAVLIAAPASGQGKTTVTAALARLHRNRGRKVRVFKCGPDFLDPMILERASGAAVYQLDMWMVGEQESRRLLWEAAGEADLILIEGVMGLFDGTPSSADLARHFGVPVLGVIDGTAMAQTFGALALGLARYQPDLPFAGVLANRVGTLRHAQLLEGSLTEGLRWYGALSRETDIELPSRHLGLVQASELNDLDLRLDAAAEALASSCQVELPPAVSFAAPTPVACAPLLKGVRIAVARDEAFAFTYGASLDLLRAMGAQLSFFSPIHDTQLPDADSLYLPGGYPELHHQALARNSSMLQAIRAHHAAGKPLLAECGGMLYLLDSLTDVEGQRAELLGLLPGDAVMQKRLAALALQAVDLPEGSLRGHTYHHSLTSTELLPIARGLSPNGGRGAEAVYRQGRMTASYVHFYFPSNPAAVAALFAPGAPVEPVLAEGVAGELEHHHHHH”, the protein production entry was “failed”. With “MKREEYLKNYLESYLRKKEVSLTEEEFNVILREFLRFAYNPEESGQEIADTADGSKTLIHKTYGEPYHSQTAGAIRESLYKFVRPSRILEKAKERKVIRILDVGFGLGYNLAVALKHLWEVNPKLRVEIISFEKELLKEFPILPEPYREIHEFLLERVPEYEGERLSLKVLLGDARKRIKEVENFKADAVFHDAFSPYKNPELWTLDFLSLIKERIDEKGYWVSYSSSLSVRKSLLTLGFKVGSSREIGRKRKGTVASLKAPVPPMEENEVRKLVLSPFAVPMRDEKLDKEPLEILIDYLLKVYKISR” the entry was “not failed”.

As for “MTQHLTIAQTYLAAWNEEDNERRRHLVGQAWAENTRYVDPLMQGEGQQGIAAMIEAARQKFPGYRFVLAGTPDGHGNFTRFSWRLISPDGDDVAGGTDVVSLNTEGRIDNVVGFLDGAVS”, the protein production entry is on record as “not failed”.

“MNTTEFDGISHAEGLCDKEFIGKAISYLYRYGQIYIGKKIEPYGIGSGQFPFLMRLYREDGINQESLSDYLKIDKGTTARAIQKLVDEGYVFRQRDEKDRRSYRVFLTEKGKKLEPDMKKIASEWGEILFSSFDDRQRREITNSLEIMFENGLKIM”: the protein production result is recorded as “not failed”. With “MQGKKFISPGAWFSMNYPSDWNEFEDGEGSFLFYNPDVWTGNFRISAFKGNASYGKDAIRQELKENDSASLVKIGTWDCAYSKEMFQEEGTYYTSHLWITGTGNIAFECSFTVPKGGSAKEAEEVIATLEARKEGEKYPAELIPVRLSEIYQINEGYEWVVSTVKQELKKDFQGVEEDLEKIQQVIDSGKISPKKKDEWLAIGITVCAILTNEVEGMEWKTLIDGNREVPVLEYQGRTIDPMKIAWSKVKAGQPCNIAEAYQSAIDHH” the entry was “not failed”. The result for “TARKCLLEKVEVITGEEAESNVLQMQCKLFVFDKTSQSWVERGRGLLRLNDMASTDDGTLQSRLVMRTQGSLRLILNTKLWAQMQIDKASEKSIHITAMDTEDQGVKVFLISASSKDTGQLYAALHHRILALRSRVE” reads “not failed”. With “MANDPRHLPSRKLLVTCALPYANGSIHLGHMLEHIQADIWVRYQRLRGNTVNFICADDAHGTPIMLKAQQMGITPEEMIAAVSEEHQKDFAGFDISFDNYHSTHSEENRELASHIYLELKKNGFISSRTISQLFDPEKEMFLPDRFVKGTCPKCKSEDQYGDNCDNCGETYSPTELINPKSAVSGATPVMKDSEHFFFDLPQFESMLKEWTRSGSLQSETANKMQEWFESGLQQWDISRDAPYFGFEIPGEKDKFFYVWLDAPIGYMGSFKNLCNKRDDLDFDEYWNKDSKTELYHFIGKDIVYFHSLFWPAMLEGSGFRKPNNVFVHGYVTVNGAKMSKSKGTFVKASTYLDHLDPECLRYYYAAKLNSRIDDLDLNLEDFTQRVNADVVNKIVNLASRNAGFIAKRFEGKLSDNFAEPELYNEFVAAADRIAELFEAREFGRAIREITALADKANQYVDEKAPWVVAKEEGKDQELQEICSVGINLFRVLMTYLKPVMPALAARTEAFLNQELTWEGIAQPLTGHEITKFKALFNRIDPKNIEAMIEASKEDAAAEMAAKEKAEAAKTETELSKDPIADEIEFDTFAQVDLRIARIISCEEVPKANKLLKFQLDIGGETRQVFSGIKSAYKPEELEGKLTVMVANLKPRKMKFGMSEGMILAAGPGGSDLWILEPHEGAQPGMRVM” the entry was “failed”.

Regarding “MPIFPKPKVTVILANLGTPDVPTASAVRAFLKQFLSDQRVIEIPKLLWKIILYSFVLPFRPKRVAHAYASVWGQDSPMREILFAQTDALKRQLISHYPQLDLNIVPAMTYGNPGVQHILKDLAASPQEHVILLPLFPQYSATSTAPLYDAFANWIPKQRHLPGLTIIKDYYRHPVFIQALVSSVQRFQQQHGKPQKLLMSFHGIPQPYADKGDPYADRCRETARLVAKQLGLTPDDWAISFQSRFGKQEWVKPYTDELLTTWAANGIKSVQILSPAFSADCLETLEELEIQNAELFLEAGGTSYQYIPALNTSVEHLELLRQLLQAHLDALNYSLAYSAH”, the protein production result is “failed”. For the sequence “MISSYGDVDMELRDEDLILEEVRDYLTAYLRNIHQEDIILDNERVVVDLNQLYNYGLMEFVEFLINNPQKGIDFIKECYNDAYYTLRNEYPTNVIIAVKNLPKIFKTTRKGKIFTIEDIRSKTLGKLVEFEGIIVMASKIRPMLKKAYYICPKCGREVVREIDILNTDSEKAVCECGAELNLIEHKSIYTDFQEIKVQQPLDLMENPEEPPKYITVFLENSPGIYAGRVKITGIPIKVKKSKKLPIYDIHVKALHCEVLDGEVKIKLTNSDIENIKKIAKRKDVVNILADRLIPEIKGHSAIKKAVLLQQIKGVKKPGKRADIHILLITDPGIGKTVILRKIAEIPGNLYGSVTTATGVGLTAAVVREKTEIGEDTWVIKPGLLVKAHKGTACIDELTVNKELQSYVLEAMESQTIHISKGGINAKLPAECAILAACNPRWGRFNPEVSVAEQINIPAPLLSRFDLIFPIRDVSDKDKDKDIAEYIVDLHRAYLDEKINREMGLDYLEVDGVKIDKEFIIKYIYYARQKKPIISEKAKELFVNYYVEMRKKHQITARQLEAAIRIAEAHAKAKLKDVVDEEDAKEAINIITECLKEIAYDPETGIFDVDKILGVSKKERDKLTTVYEIIKELSEKSELVEHEDIAEEAKKKGIKEDELENIIKKLIKYGDIDEPKPGRYRLL”, the protein production result is on record as “failed”. Regarding “SDLVITQELARAESQQDAASLKKAYELIKSANLGKSEFDPSESFSPDLFVLCAEQALKMRQPEVSEDCIQMYFKVKAPITQFLGRAHLCRAQMCAPKSAENLEEFENCVTEYMKAINFAKGEPRYYFLVYNASVLYWQMVRPFLKPGYRHHLIPSLSQIINVLSQTEEEDKEWRAELMLELLECYLQAGRKEEAARFCSTAAPFIKSHVPQKYRQIFSVMVNQRIRNRDVRSNFLKSHCSENCVEIT”, the protein production entry is “not failed”.

On to “MSDEGPGTGPGNGLGEKGDTSGPEGSGGSGPQRRGGDNHGRGRGRGRGRGGGRPGAPGGSGSGPRHRDGVRRPQKRPSCIGCKGTHGGTGAGAGAGGAGAGGGGRGRGGSGGRGRGGSGGRRGRGRERARGGSRERARGRGRGRGEKRPRSPSSQSSSSGSPPRRPPPGRRPFFHPVGEADYFEYHQEGGPDGEPDVPPGAIEQGPADDPGEGPSTGPRGQGDGGRRKKGGWFGKHRGQGGSNPKFENIAEGLRALLARSHVERTTDEGTWVAGVFVYGGSKTSLYNLRRGTALAIPQCRLTPLSRLPFGMAPGPGPQPGPLRESIVCYFMVFLQTHIFAEVLKDAIKDLVMTKPAPTCNIRVTVCSFDDGVDLPPWFPPMVEGAAAEGDDGDDGDEGGDGDEGEEGQELEHHHHHH”, for which the protein production entry was “failed”. The result for “MKLVEHYIMRGTRRLVLIIVGFLIFIFASYSAQRYLTEAANGTLALDVVLDIVFYKVLIALEMLLPVGLYVSVGVTLGQMYTDSEITAISAAGGSPGRLYKAVLYLAIPLSIFVTLLSMYGRPWAYAQIYQLEQQSQSELDVRQLRAKKFNTNDNGRMILSQTVDQDNNRLTDALIYTSTANRTRIFRAGSVDVVDPSPEKPTVMLHNGTAYLLDHQGRDDNEQIYRNLQLHLNPLDQSPNVKRKAKSVTELARSAFPADHAELQWRQSRGLTALLMALLAISLSRVKPRQGRFSTLLPLTLLFIAIFYGGDVCRTLVANGAIPLIPGLWLVPGLMLMGLLILVARDFSLLQKFSR” reads “failed”; that for “AIPQHEHPMIIAGFGRFGQIIARNARLNHIGFTAIDNNLQQIDFVRRYGGTLYYGDITQPDILRAAGIEKAKVFILAIDDVEDSMNVARHIRLNYPQITLMVRARDRYQVHLLRDLGVEHIWRETYLSSLGMAYRALCELGIP”, “failed”.

Regarding “MNNLQTKFPHIAIKLNEPLSKYTYTKTGGAADVFVMPKTIEEAQEVVAYCHQNKIPLTILGNGSNLIIKDGGIRGVILHLDLLQTIERNNTQIVAMSGAKLIDTAKFALNESLSGLEFACGIPGSIGGALHMNAGAYGGEISDVLEAATVLTQTGELKKLKRSELKAAYRFSTIAEKNYIVLDATFSLALEEKNLIQAKMDELTAAREAKQPLEYPSCGSVFKRPPGHFAGKLIQDSGLQGHIIGGAQVSLKHAGFIVNIGGATATDYMNLIAYVQQTVREKFDVELETEVKIIGEDK”, the protein production result is on record as “not failed”.

On to “MSRRAPMFKPLPITLQRGALRLEPLVEADIPELVSLAEANREALQYMDGPTRPDWYRQSLAEQREGRALPLAVRLGVQLVGTTRFAEFLPALPACEIGWTWLDQAQHGSGLNRMIKYLMLKHAFDNLRMVRVQLSTAASNLRAQGAIDKLGAQREGVLRNHRRLAGGRLDDTFVYSITDHEWPQVKAALEASFTG”, for which the protein production entry is listed as “not failed”. In the case of “MKKQFLFLLLAVILLSSCATATLSEFPGVGRVKQYDFYSYDIPPAFDGFRIGFASDFHYESRFKRSELNSAVRALKSMHADVLLLGGDYRGKKGGNLDTLFTALSRVYTPYGTFAVMGNHDYGYCYSEVVEAMQKNHVRLMEHKSYKLMKDGQYIIVSGVRNPFDLKKNGDSPSQHFPADDFIILLTHTPDYAEDTDVSNANLVLAGHTHGGQVSLFKKYSPVKHSIYGNRFLTGWKENSKGTPIIITNGLGTSRVDVRLFTPSEVVLVVLHRVEKQKE”, the protein production entry is reported as “failed”. The result for “MRPVLVLLHRYVGLATALFLFLAGLTGSLLAFHHEIDEWLNPGFYAVGEGGERLSPGSLVQRVESRYPRQLVWYMEYPEAGGHPALLATVPREAGAKVEHDVFYLDPVSGEEVGKRLWAACCFQPANLVPWVLEFHHNLTLPGNWGLYLMGGVAMFWFLDCFVGAWLTLPRGRPFWSKWTTAWKIKRGNAYRFNFDLHRAGGLWLWLLLAPVALSSVALNLPSQVFKPLVSLFSPIEPSVYEARGRLPREQLGETRLDYDRTFQLASVEAARLGIAEPIGELYYSFEYNFFGAGFGDHDDPMGKSWLFFHGSDGRLLGQEVAGQGSWGERFYRLQYPIHGGRIAGLPGRIAIAALGLAIAGLSLTGVYIWWRKRRARHWNGR” reads “failed”; that for “MHSPLELTLVLLAAAVIGVVLFRMLQLPPMLAYLVVGVVIGPNATGLESDSAQTRYLAEFGVVFLMFSIGLEFSLAKLRSMRRLVLGLGASQVVLTMLLTVPASLLLSRWYPLSWQASLALGGALAMSSTAIVSKMLAERLQLETEHGRNIISVLLFQDLAVVLLLIVVPSLGKNPTDLVLTLSIAAVKIIVALVLILFLGQKLLSRWFHLVAARRSQELFMLNLLLVTLGMAALTERLGLSMALGAFLAGMLVSETPYRLQVEEDIKPFRDVLLGLFFVTVGMLLDPRVVIGHWGLVIGLVIGPVLFKFALIALLARAFGSGGGTAIRTALGLAQAGEFGFVLLNQIDGMRLIDPLLSQAILAAMLLSMLLAPFLIQYSDAIAMRLSRTDWLMQSLAMTKIAAQSLQTERHVIICGYGRSGQNLAHMLEQEDISYVALDLDPDRVRDAAAAGERVVYGDAARRESLVAAGVHRAAAVAVTYADTASALKVLHHVQALAPTLPVIVRTIDDADLDRLQQAGAAEVVPEIIEGSLMLASHALVLLGVPLRRVVRRAQEMRDARYGLLRGYFHGQDDDEDMLERDAVRLHSVPLIKGSPAIGRPLGTLGLETFKTSVTAIRRQGIRALDPEPNTLLELGDIVVLRGTPDGLQQAEERLSPR”, “failed”.
